Patent US20120315284

Key:
[1] = molecular target: recombination GST-JNK1, P45983
[2] = molecular target: T1, GST-c-Jun, P05412
T1 chain: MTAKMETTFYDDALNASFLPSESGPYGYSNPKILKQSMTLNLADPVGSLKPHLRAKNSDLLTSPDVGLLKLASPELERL

Protein	in vitro immune-co-kinase analysis (32P phosphorylation by immunoprecipitated MKK7) [1]	in vitro immune-co-kinase analysis (32P phosphorylation) [2]
MKK7 in cell lysate (immunoprecipitated with MKK7 antibody; the cells' own MKK7) (protein) AASSLEQKLSRLEAKLKQENREARRRIDLNLDISPQRPRPTLQLPLANDGGSRSPSSESSPQHPTPPARPRHMLGLPSTLFTPRSMESIEIDQKLQEIMKQTGYLTIGGQRYQAEINDLENLGEMGSGTCGQVWKMRFRKTGHVIAVKQMRRSGNKEENKRILMDLDVVLKSHDCPYIVQCFGTFITNTDVFIAMELMGTCAEKLKKRMQGPIPERILGKMTVAIVKALYYLKEKHGVIHRDVKPSNILLDERGQIKLCDFGISGRLVDSKAKTRSAGCAAYMAPERIDPPDPTKPDYDIRADVWSLGISLVELATGQFPYKNCKTDFEVLTKVLQEEPPLLPGHMGFSGDFQSFVKDCLTKDHRKRPKYNKLLEHSFIKRYETLEVDVASWFKDVMAKTESPRTSGVLSQPHLPFFR	MKK7 was activated by depletion of TIP41 and phosphorylated GST-JNK1, a substrate of MKK7	–
recombination GST-JNK1 (protein) MSRSKRDNNFYSVEIGDSTFTVLKRYQNLKPIGSGAQGIVCAAYDAILERNVAIKKLSRPFQNQTHAKRAYRELVLMKCVNHKNIIGLLNVFTPQKSLEEFQDVYIVMELMDANLCQVIQMELDHERMSYLLYQMLCGIKHLHSAGIIHRDLKPSNIVVKSDCTLKILDFGLARTAGTSFMMTPYVVTRYYRAPEVILGMGYKENVDLWSVGCIMGEMVCHKILFPGRDYIDQWNKVIEQLGTPCPEFMKKLQPTVRTYVENRPKYAGYSFEKLFPDVLFPADSEHNKLKASQARDLLSKMLVIDASKRISVDEALQHPYINVWYDPSEAEAPPPKIPDKQLDEREHTIEEWKELIYKEVMDLEERTKNGVIRGQPSPLAQVQQ	–	the activated JNK1 phosphorylated GST-c-jun protein, a substrate of JNK pathway
